Laboratory results taken from patent US20230192818A1.

Tests used:
[1] = target: Antibody 178-09_His B.1.1.7 (27080) (SARS-CoV-2), P0DTC2; assay: SPR (Carterra); conditions: remark: other sources report otherwise
[2] = target: Delta spike trimer (SARS-CoV-2), P0DTC2; conditions: remark: other sources report otherwise

B1: 3-31 (Fc fusion)
chain: EVQLVESGGGLVQPGGSLRLSCAASGSTFSINAMGWFRQAPGKEREFVAGITSSGGYTNYADSVKGRFTISADNSKNTAYLQMNSLKPEDTAVYYCAADGVPEYSDYASGPVWGQGTLVTVSS
With B1 the Kd [1] was 16.1 nM and the IC50 [2] was 3 nM.
